In article PMC9459147, “Targeting the Cbl-b-Notch1 axis as a novel immunotherapeutic strategy to boost CD8+ T-cell responses” (Frontiers in Immunology, 2022):

Molecular target: T1, UBE2D2(C85K)-Ub-FL-BODIPY (human | , UniProt P62837 1-147; P0CG48 1-76, C85K, ubiquitinated in vitro; BODIPY labelled in vitro (position not given))
T1 construct: UBE2D2 ubiquitin-conjugating enzyme, human, with C85K; ubiquitin, conjugated in vitro to UBE2D2(C85K); also called UBE2D2(C85K), ubiquitinated and BODIPY labelled; source: E. coli, purified, ubiquitinated and BODIPY labelled in vitro
Assay: AlphaScreen or HTRF; TR-FRET: biotinylated Cbl-b (36-427) with Src-Zap-70 fusion and ATP (enzyme reaction), UBE2D2(C85K)-Ub-FL-BODIPY and Streptavidin-Tb (binding reaction); signal at 520 nm, reference at 620 nm; used to titrate small-molecule Cbl-b inhibitors (NTX-512, NTX-447, NTX-307)
Conditions: both partners purified

B1: recombinant human Cbl-b (aa 36-427), biotinylated (domain or fragment, UniProt Q13191 36-427, looked up)
chain: PKQAAADRRTVEKTWKLMDKVVRLCQNPKLQLKNSPPYILDILPDTYQHLRLILSKYDDNQKLAQLSENEYFKIYIDSLMKKSKRAIRLFKEGKERMYEEQSQDRRNLTKLSLIFSHMLAEIKAIFPNGQFQGDNFRITKADAAEFWRKFFGDKTIVPWKVFRQCLHEVHQISSGLEAMALKSTIDLTCNDYISVFEFDIFTRLFQPWGSILRNWNFLAVTHPGYMAFLTYDEVKARLQKYSTKPGSYIFRLSCTRLGQWAIGYVTGDGNILQTIPHNKPLFQALIDGSREGFYLYPDGRSYNPDLTGLCEPTPHDHIKVTQEQYELYCEMGSTFQLCKICAENDKDVKIEPCGHLMCTSCLTAWQESDGQGCPFCRCEIKGTEPIIVDPFD
modifications: biotinylated in vitro (position not given)
notes: Cbl-b, human, residues 36-427; In the assay it was mixed with a recombinant human Src (aa 254-536)-Zap-70 (aa 281-297) fusion protein and ATP ('enzyme reaction'); Detected through Streptavidin-Tb; also called Cbl-b enzyme; source: E. coli, purified and biotinylated in vitro
Question: Does B1 bind?
Answer: Result: binds
